Assay [1] has as its target T1, hMSLN recombinant protein (human mesothelin) (human, UniProt Q13421 296-598, limits assumed).
T1 construct: Amine-coupled to a CM5 chip for SPR; also called recombinant mesothelin (MSLN); biotinylated hMSLN recombinant protein
Kind of assay: SPR, BIAcore T200; hMSLN amine-coupled on CM5 chip, scFv injected; 1:1 Langmuir model; mean of three experiments. The procedure: (§1) To measure the affinity of the selected variants, surface plasmon resonance (SPR) was performed by using a BIAcore T200 device. For analysis, hMSLN was immobilized on a CM5 sensor chip by using an amine coupling method. Experiments were performed by using HBS-EP buffer, and diluted samples of each scFv variant were injected at a rate of 30 μl/min for 120 seconds and dissociated for 5 minutes. After the first experiment, 5 mM NaOH and 0.5 M arginine at pH 8.0 were sequentially injected for 30 seconds to regenerate the chip. For each scFv variant, three separate experiments were averaged to determine a dissociation constant, and each dissociation constant was determined by using a 1:1 Langmuir model in BIAevaluation 3.2 software.
For orientation: SPR reads the build-up and loss of mass on a sensor chip optically.

Assay [2] concerns the target T1, hMSLN recombinant protein (human …). Kind of assay: ELISA: 100 ng purified scFv coated per well, biotinylated hMSLN titrated, streptavidin-HRP, A450; the concentration varied is that of hMSLN. The procedure:
(§2) Specifically, each well of the 96-well immune plate was coated with 100 ng of the scFv variants produced as recombinant proteins at 4° C. for 16 hours. After adding 100 μl of pH 7.4 PBS supplemented with 3% bovine serum albumin (BSA) to each well, the cells were incubated at room temperature for 1 hour, and the plate was washed three times with 350 μl of PBS-T. The biotinylated hMSLN recombinant protein was diluted to 1 μM, 200 nM, 40 nM, 8 nM, 1.6 nM, and 0.32 nM in the pH 7.4 PBS, and reacted at room temperature for 1 hour with each of the coated scFv antibodies. Afterwards, the cells were washed three times with 350 μl of PBS-T per well. Then, 50 μl of HRP-conjugated streptavidin diluted at 1:15,000 in the pH 7.4 PBS was added to the cells followed by incubation of the cells at room temperature for 1 hour, and washing three times with 350 μl of PBS-T. After adding 50 μl of TMB, the cells were incubated at room temperature for 15 minutes, the reaction was terminated by adding 50 μl of 2 M H₂SO₄, and the absorbance at 450 nm was measured.
In general terms: An ELISA detects its analyte on a solid surface through an enzyme-linked reagent.

For assay [3], the target named is T2, hMSLN recombinant protein (human mesothelin) (human, UniProt Q13421 296-598). The assay is described as above. The procedure: as §2
T2 sequence (Q13421 other isoform, or with tags, fused parts or gaps): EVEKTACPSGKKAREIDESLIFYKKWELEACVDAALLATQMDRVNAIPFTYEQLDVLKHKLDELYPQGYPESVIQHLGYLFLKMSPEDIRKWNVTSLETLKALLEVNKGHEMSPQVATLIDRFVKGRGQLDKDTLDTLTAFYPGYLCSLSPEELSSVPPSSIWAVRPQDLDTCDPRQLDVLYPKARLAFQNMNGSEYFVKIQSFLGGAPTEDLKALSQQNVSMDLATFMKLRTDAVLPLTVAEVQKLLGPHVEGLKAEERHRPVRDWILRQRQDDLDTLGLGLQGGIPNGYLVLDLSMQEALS
Assay [4] addresses T2, hMSLN recombinant protein (human …). Kind of assay: SPR, BIAcore T200; hMSLN amine-coupled on CM5 chip, scFv injected; 1:1 Langmuir model; mean of three experiments. The procedure: as §1

Numbering of substitutions follows the chain as printed.

The Kd is the constant that tells how readily two partners part at equilibrium. One may read the EC50 (read off the curve) as the midpoint of the concentration-response curve.

T1 sequence (Q13421 other isoform, or with tags, fused parts or gaps limits assumed): as the sequence (Q13421 other isoform, or with tags, fused parts or gaps) above

B1: wild-type M5 scFv (DFDY) (scFv)
scFv: QVQLVQSGAEVEKPGASVKVSCKASGYTFTDYYMHWVRQAPGQGLEWMGWINPNSGGTNYAQKFQGRVTMTRDTSISTAYMELSRLRSDDTAVYYCASGWDFDYWGQGTLVTVSSGGGGSGGGGSGGGGSGGGGSDIVMTQSPSSLSASVGDRVTITCRASQSIRYYLSWYQQKPGKAPKLLIYTASILQNGVPSRFSGSGSGTDFTLTISSLQPEDFATYYCLQTYTTPDFGPGTKVEIK
notes: Recombinant protein made in E. coli BL21(DE3) and purified; also called WT M5 scFv; WT DFDY
As to B1, the equilibrium dissociation constant (Kd) in assay [1] was found to be 11.2 nM. Also, the “EC50 (read off the curve)” value in assay [2] was around 40 nM.

B2: DGAD (scFv)
chain: B1 scFv with F102G, D103A, Y104D
For B2, the “EC50 (read off the curve)” value in assay [3] was around 40 nM.

B3: M5 scFv variant DVAY (scFv)
chain: B1 scFv with F102V, D103A
Consider B3, for which the dissociation constant Kd in assay [4] is 121 nM.

Source of the values: patent US20240151728A1 (KOREA INSTITUTE OF SCIENCE AND TECHNOLOGY, published 2024).
